The test system of series [1] is TALEN right R17 of FIG. 4B (Comparative Example 1) (synthetic construct). Nature of the series: cell_activity. As to conditions: SSA assay HEK293T, reference pair with L20.
The subject of series [2] is TALEN left L20 of FIG. 4B (Comparative Example 1) (synthetic construct). Nature of the series: cell_activity. Particulars: SSA assay HEK293T, reference pair with R17.

With “TCCATTCCTATGACTGTAGATTTTTATCAGACTGAAGAGCTATTGTGTGAGTATA (double strand) [FIG. 4B TALEN target]”, the activity in series [1] and in series [2] was 1 relative each time.

These data come from patent US10006011.
